Experiments:
[1] = molecular target: PTPRZ1 CA protein (Cusabio Technology LLC, CSB-YP019068HU) (Homo sapiens, UniProt P23471); assay: SPR
[2] = molecular target: carbonic anhydrase II protein (Sigma Aldrich, C2522) (Bos taurus, UniProt P00921); assay: SPR
carbonic anhydrase II protein (Sigma Aldrich, C2522), sequence (P00921 whole entry): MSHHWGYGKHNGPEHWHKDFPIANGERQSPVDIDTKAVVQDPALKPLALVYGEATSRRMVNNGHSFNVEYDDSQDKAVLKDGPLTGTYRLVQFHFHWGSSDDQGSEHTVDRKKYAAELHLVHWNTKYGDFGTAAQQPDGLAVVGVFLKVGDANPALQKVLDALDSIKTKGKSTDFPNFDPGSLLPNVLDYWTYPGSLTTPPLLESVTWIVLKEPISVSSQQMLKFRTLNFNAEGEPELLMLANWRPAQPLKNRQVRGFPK

PTPRZ1 CA protein (Cusabio Technology LLC, CSB-YP019068HU), sequence (P23471 36-300): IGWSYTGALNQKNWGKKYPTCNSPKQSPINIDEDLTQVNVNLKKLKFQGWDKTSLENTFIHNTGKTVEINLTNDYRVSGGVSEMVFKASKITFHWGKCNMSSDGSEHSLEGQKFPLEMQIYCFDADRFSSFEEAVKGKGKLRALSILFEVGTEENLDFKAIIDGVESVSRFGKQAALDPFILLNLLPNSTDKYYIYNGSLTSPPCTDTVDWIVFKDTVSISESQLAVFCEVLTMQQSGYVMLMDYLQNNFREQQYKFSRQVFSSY

- Kd [1]: 57.4 nM
- binding result [2]: no binding (tested: 800 nM)
B1: anti-PTPRZ1 scFv RB473, scFv-Rabbit Fc (scFv, V domains shown)
VH: not shown
VL: QSVLTQPPSVSAAPGQKVTISCSGSSSNIGNNYVSWYQQLPGTAPKLLIYDNNKRPSGIPDRFSGSKSGTSATLGITGLQTGDEADYYCGTYDYIATRAVFGGGTKLTVL
